Our source for the Kd values is patent publication US20030203415A1 (published 2003).

Test [1] deals with T1, H6NA3 (UniProt P06731 35-144; P06731 499-590, limits assumed).
T1 construct: domain: N domain;domain: A3 domain; recombinant truncated target
T1 sequence: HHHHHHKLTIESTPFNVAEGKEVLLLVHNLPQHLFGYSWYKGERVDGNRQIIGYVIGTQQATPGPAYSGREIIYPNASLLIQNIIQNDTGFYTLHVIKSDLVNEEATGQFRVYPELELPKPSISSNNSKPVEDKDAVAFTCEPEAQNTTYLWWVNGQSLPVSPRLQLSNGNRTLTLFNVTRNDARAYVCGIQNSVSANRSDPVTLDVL
In words: fluorescence anisotropy, direct binding. The method, then:
(§1) Dissociation constants were determined using fluorescence anisotropy, through direct binding measurements and competition experiments. In direct binding assays, the concentration of the fluorescein-labeled peptide is held constant and the concentration of H6NA3 is varied. In the competition experiment, the concentration of the fluorescein-labeled peptide and the H6NA3 target are held constant and the concentration of a competitor (cT84.66, unlabeled) is varied. The change in anisotropy is fit to the appropriate equation via nonlinear regression to obtain the apparent Kd.
A general note: Polarisation of emitted light reports the rotation of a fluorescent probe.

Test [2] addresses T1, H6NA3. In words: fluorescence anisotropy, competition with unlabeled cT84.66. The method, then:
as §1

The target of test [3] is T1, H6NA3. The test is described as follows: fluorescence anisotropy. As to the method: as §1

Ends that are not written are not given here. fluorescein = fluorescein label attached through NHS-fluorescein to the ε-amino side group of the C-terminal lysine

B1: P-E01 (peptide)
peptide: SNWDCMFGAEGWACSPWAPGGEGGGSK(fluorescein)-NH2
modifications: not fully specified (bridges); printed as SNWDCMFGAEGWACSPWAPGGEGGGSK-CONH2; cysteine pairing not given here; also: fluorescein on C-terminal Lys ε-amino in labelled aliquots
notes: synthetic 27-mer
As usually defined, the Kd is the constant that tells how readily two partners part at equilibrium. Read a high Kd as weaker binding. Take B1: the Kd in test [1] came out at 6.9 µM; in test [2] it was 5.3 µM; in test [3], 7 µM.
